Assay [1] deals with T1, thrombin (Homo sapiens, UniProt P00734).
T1 construct: purchased Enzyme Research, South Bend, IN; host or cells: HCII 1-75 probe made in house in E. coli TOP10
The assay is described as follows: SPR competition of thrombin binding to chip-immobilized HCII 1-75. As to the method:
Surface plasmon resonance experiments were carried out using a BIAcore X biosensor instrument (Biacore, Piscataway, NJ) at 25°C. Biotinylated HCII- or hirudin-related peptides were immobilized on streptavidin-coated sensor chips (GE Healthcare) under conditions recommended by the manufacturer. […] A flow rate of 2 μL/minute was employed for immobilization runs, with 0.5 M NaCl employed as a regeneration buffer and HEPES-buffered saline (10 mM HEPES, 150 mM NaCl, 0.005% Tween-20, pH 7.7) otherwise used for binding determinations. Binding of thrombin (0-30 μM) was assessed using 20 μL injection volumes, and flow rates of 20 μL/minute. BIAcore Evaluation 3.2 (BIAcore) software was used to evaluate sensorgrams from each run, using either 1:1 Langmuir binding or steady state analysis. In some experiments various concentrations of HCII- or hirudin-related peptides were combined with 250 nM thrombin or FPR-ck-thrombin immediately prior to being flowed over chip-bound HCII 1-75.
Figure 6 Senorgrams from surface plasmon resonance (SPR) experiments. Biotinylated HCII 1-75 was bound to streptavidin-coated sensor chips and varying concentrations of thrombin were flowed over the chip, generating sensorgrams (e.g. Panel A) of the response in response units (RU) versus the time in seconds. Panel B is a plot of experiment shown in Panel A, combined with two other independent experiments; each point therefore represents the mean mid-plateau response ± the SD of 3 independent experiments. In panels C-F the thrombin concentration was fixed at 250 nM and competitor peptides identified in each panel were combined with thrombin and flowed over the chip. The concentration of competitor peptides in each experiment is shown to the left of the sensorgram.

For assay [2], the target named is T2, α-thrombin (Homo sapiens, UniProt P00734). The assay is described as follows: competition of binding of α-thrombin to HCII 1-75 immobilized on microtiter plate wells. Further details: purchased Enzyme Research, South Bend, IN; host or cells: HCII 1-75 probe made in house in E. coli TOP10. As to conditions: 5 nM thrombin, 37°C 30 min, anti-thrombin antibody, OD 490 nm; mean of 3 determinations ± SD.
Protocol: Purified HCII 1-75 was immobilized onto an Immulon 4 HBX 96 well microtiter plate (Thermo, Milford MA), using a 1 μM solution of HCII 1-75 in PBS at 0.1 mL per well overnight at 4°C. The HCII solution was then removed and the wells blocked with 5% BSA (w/vol) in PBS-T for one hour at ambient temperature. […] Wells were washed and reacted with horseradish peroxidase-conjugated sheep anti-human thrombin antibody (Affinity Biologicals, Ancaster, ON), diluted 1:10,000 in blocking buffer, for one hour at ambient temperature. Following washes with PBS-T, colour was developed using a freshly made solution of 5 mg o-phenylenediamine (Pierce) in 12 mL of 25 mM citric acid, 97 mM Na2HPO4 pH5.0 supplemented with 0.03% (v/vol) hydrogen peroxide for ten minutes prior to stopping the reaction with sulfuric acid. The optical density at 490 nm was then read on an EL808 Plate reader (Biotek Instruments, Winooski, VT). […] The same program was used to calculate IC50s in competitive binding experiments in which HCII-derived or hirudin-derived peptides were used to compete the binding of thrombin to immobilized HCII 1-75.

Another assay concerns human thrombin. Nature of the assay: thrombin clotting time in plasma. Type of assay: biochemical. The procedure: Thrombin times were determined using Thrombin 10 (freeze-dried human thrombin with calcium [1.5 NIH units/mL] Diagnostica Stago, Asnieres, France) and an STA 4 coagulation analyzer (Diagnostica Stago). Citrated human plasma (25 μL) was combined with 75 μL veronal buffer (7.14 mM sodium acetate trihydrate, 7.4 mM sodium diethyl barbiturate, 131 mM NaCl pH 7.4) containing or lacking HCII- or hirudin-related peptides, and clotting time was determined following the addition of 100 μL Thrombin 10 reagent.
Figure 4 Effects of competitor peptides on thrombin clotting time. […] The mean ± the SD of 3 independent experiments is shown.

For assay [3], the target named is T2, α-thrombin. The assay is described as follows: competition of dermatan sulfate-catalysed thrombin inhibition by plasma-derived HCII (k2app). Type of assay: biochemical. Also on record: purchased Enzyme Research, South Bend, IN. The note with it: 250 μM competitor peptide, 1.4 μM dermatan sulfate. The procedure:
(§1) The apparent second-order rate constant (k2app) of α-thrombin inhibition by purified plasma-derived HCII (Affinity Biologicals, Ancaster, ON) was determined under pseudo-first order conditions involving an excess of plasma-derived HCII over α-thrombin using a discontinuous assay as previously described, with or without addition of competitor HCII 1-75, HCII 54-75, or HCII 1-53 at 0.25 mM. Briefly, plasma-derived HCII (140 nM) was incubated with α-thrombin (14 nM) in PPNE buffer (20 mM Na2HPO4, pH 7.4, 100 mM NaCl, 0.1 mM EDTA, 0.1% polyethylene glycol 8000) supplemented with 0.055 mg/mL (2 μM) standard heparin (Hepalean, Organon Teknika Canada, St. Laurent, QC) and 10 μM S2238 (DiaPharma,West Chester OH) or 0.055 mg/mL (1.4 μM) dermatan sulfate (Sigma-Aldrich, St. Louis, MO). Residual protease activity was determined by diluting the reactions 100-fold into 100 μM S2238 and measuring the absorbance at 405 nm for 5 minutes using an EL808 plate reader (BioTek Instruments, Winooski, VT).
(§2) Figure 5 Effects of HCII-derived peptides on the inhibition of thrombin by plasma-derived HCII in the presence of GAGs. […] The competing peptides that were used separately at 250 μM were: HCII 1-75; HCII 54-75; or HCII 1-53. The mean ± the SD of 3 independent experiments is shown.

In assay [4] the target is T2, α-thrombin. Nature of the assay: competition of heparin-catalysed thrombin inhibition by plasma-derived HCII (k2app). The note with it: 250 μM competitor peptide, 140 nM plasma-derived HCII, 55 μg/mL standard heparin. Further details: purchased Enzyme Research, South Bend, IN. Format: biochemical. The procedure:
as §1, §2

The target of assay [5] is T2, α-thrombin. Nature of the assay: amidolytic activity of thrombin against S2238 after modification. Format: biochemical. Further details: purchased Enzyme Research, South Bend, IN. As to conditions: bFPRck:thrombin molar ratio 10:1, TBS pH 7.4, ten minutes ambient. As to the method: HCII- or hirudin-related peptides in 50 mM sodium phosphate pH 6.5 were combined with 20-fold molar excess sulfosuccinimidyl-6-(biotinamido) hexanoate (sulfo-NHS-LC-biotin, Pierce) at ambient temperature for 30 minutes. Reactions were quenched with excess Tris-Cl pH 7.4 and sulfo-NHS-LC-biotin removed by desalting or dialysis. Biotinylated FPR chloromethylketone (bFPRck; Haematologic Technologies, Essex Junction, VT) was used to modify α-thrombin at a bFPRck: thrombin molar ratio of 10:1 in Tris-buffered saline (TBS, pH 7.4) for ten minutes at ambient temperature. Excess reagent was removed by overnight dialysis versus TBS.

In assay [6] the test system is thrombin. The note with it: ref [21], cited from earlier work. The source says: Although the differences between the encounter complex and the native structure support the allosteric model of activation, they provide no information on the position or role of the first 54 residues of HCII. […] We replicated this experiment and extended it to include all four of the exosite 1 ligand peptides employed in this study, as shown in Figure 4. We used the measurement previously employed to judge the potency of the peptides, the concentration required to double the thrombin clotting time. […] While there are no similar values in the literature available for HCII 1-75 for comparison to our results, ...

The target of another assay is HCII. As to conditions: ref [47]; read-out: KD, HCII-dermatan sulfate interaction; cited from earlier work. The source says:
(§3) The relative contributions to HCII function of a template mechanism, in which thrombin and HCII become co-localized due to their binding to the same glycosaminoglycan chain, or a conformational change mechanism, in which GAG binding to HCII releases the N-terminal extension of HCII for exosite 1 binding, remain somewhat controversial, as does the degree of cross-talk between thrombin’s exosites and active site.

Assay [7] deals with T1, thrombin. The note with it: ref [47]; read-out: KD, thrombin binding to dermatan sulfate; cited from earlier work.
From the text: as §3

Entries after “also recorded” stand apart in the source; their conditions may differ. Ends that are not written are not given here.

For orientation: Ki means a dissociation constant, usually derived from enzyme kinetics or from competition with a known ligand. For orientation: IC50 means the concentration that gives 50% inhibition. The low end stands for greater potency in that assay, the high end for weaker potency in that assay. On to “sulfo-Hir 54-65: Synthetic peptide containing the C-terminal 12 residues of hirudin, with Tyr63 sulfated [reference compound]”, for which, in the assay with thrombin [1] (250 nM thrombin, chip-immobilized HCII 1-75, SPR 25°C, HBS pH 7.7, Ki from IC50 using KD 340 nM, mean of 3 determinations ± SD, read-out: Ki, inhibition of thrombin binding to HCII 1-75 (SPR)), the Ki amounted to 0.054 ± 0.09 µM. Also, the “fold more effective competitor of thrombin binding than HCII 1-75” value in the assay with thrombin [1] (SPR competition) worked out at 48 fold. Besides, the IC50 with α-thrombin [2] was determined as 0.14 ± 0.04 µM. Also, the “concentration required to double the thrombin clotting time” value with human thrombin (diluted citrated human plasma, Thrombin 10 reagent, mean of 3 determinations ± SD) was 0.150 ± 0.02 µM.

“HCII 1-53: Synthetic peptide containing the first 53 residues of human HCII and a nonapeptide N-terminal tag ({Met-Gly-Ser-H2N-H2N-H2N-H2N-H2N-H2N}-GSKGPLDQLEKGGETAQSADPQWEQLNNKNLSMPLLPADFHKENTVTNDWIPE; UniProt P05546 20-72, looked up, fragment)”: the “effect on rate of thrombin inhibition by plasma-derived HCII, dermatan sulfate” value with α-thrombin [3] is “no reduction in the apparent rate of inhibition”. In addition, the “effect on rate of thrombin inhibition by plasma-derived HCII, heparin” value with α-thrombin [4] is recorded as “no effect; also recorded: no detectable ability to bind thrombin, to delay thrombin-mediated coagulation, or to compete for the N-terminal HCII 1-75 extension in native HCII”. In the assay with thrombin [1] (250 nM thrombin, chip-immobilized HCII 1-75, SPR 25°C, HBS pH 7.7, Ki from IC50 using KD 340 nM, mean of 3 determinations ± SD), the “Ki, inhibition of thrombin binding to HCII 1-75 (SPR)” value is “No inhibition”. Besides, the “thrombin binding” value with thrombin [1] (summary statement, discussion/conclusions) is “no detectable ability to bind thrombin; also recorded: did not bind to thrombin”. Also, in the assay with thrombin [1] (up to 250 μM competitor, 250 nM thrombin, SPR), the “effect on thrombin binding to HCII 1-75” value is listed as “no effect on thrombin binding to HCII 1-75”. The “effect on thrombin-mediated plasma clotting” value in the assay with human thrombin (plasma clotting assay) is on record as “no effect; also recorded: no detectable ability to bind thrombin, to delay thrombin-mediated coagulation”.

Take “Biotinylated FPR chloromethylketone [bFPRck]”: the “amidolytic activity of modified thrombin against S2238” value on α-thrombin [5] is listed as “no detectable amidolytic activity against S2238”.

In the case of “HCII 54-75 peptide: synthetic peptide to HCII residues 54-75 of ref [21] (GEEDDDYLDLEKIFSEDDDYID; not fully specified (N-terminus); UniProt P05546 73-94, looked up, fragment)”, the “fold less potent than sulfo-Hir 54-65 as inhibitor of thrombin-mediated clotting” value in the assay on thrombin [6] (recalcified human plasma) is “approximately 30 fold”. In addition, the “inhibition of thrombin activities” value in the assay with thrombin [6] was “inhibition of thrombin-mediated fibrinogen cleavage and clot formation”.

The Kd is the free concentration of one partner at which half of the binding sites on the other are occupied at equilibrium, for simple one-to-one binding. For the substance dermatan sulfate, the equilibrium dissociation constant (Kd) is 236 to 290 µM on HCII and 2 to 6 µM at thrombin [7].

These data come from paper PMC3601010, “The complete N-terminal extension of heparin cofactor II is required for maximal effectiveness as a thrombin exosite 1 ligand” (BMC Biochemistry, 2013).
